According to patent US20180037631A1 (Bristol-Myers Squibb, published 2018):
Positions count from the first letter of the chain named.

B1: E16 (designed binder)
10Fn3 domain: MGVSDVPRDLEVVAATPTSLLISWQVPRPMYQYYRITYGETGGNSPVQEFTVPYDLVTATISGLKPGVDYTITVYAVTDHKPHADGPHTYHESPISINYRTEIDKPSQ
B2: E11 (designed binder)
10Fn3 domain: B1 10Fn3 domain with Q25T, V26P, P27A, R28N, P29K, M30S, L56G, V57T, S93Y
B3: E10 (designed binder)
10Fn3 domain: MGVSDVPRDLEVVAATPTSLLISWYPGSRTYQYYRITYGETGGNSPVQEFTVPGGVRTATISGLKPGVDYTITVYAVTDYYHPATYEHEYHAHPISINYRTEIDKPSQ
B4: E15 (designed binder)
10Fn3 domain: MGVSDVPRDLEVVAATPTSLLISWQVPRPMYQYYRITYGETGGNSPVQEFTVPHDLRTATISGLKPGVDYTITVYAVTDSYNPATHEYKYHQTPISINYRTEIDKPSQ
B5: E6 (designed binder)
10Fn3 domain: B4 10Fn3 domain with H54Y, L56V, R57Y
B6: E12 (designed binder)
10Fn3 domain: B4 10Fn3 domain with L56V, R57Y
B7: E9 (designed binder)
10Fn3 domain: B4 10Fn3 domain with Q25E, V26A, P27N, R28P, P29S, M30R, R57N
B8: E14 (designed binder)
10Fn3 domain: B4 10Fn3 domain with H54Y, L56V, R57T
B9: E8 (designed binder)
10Fn3 domain: B4 10Fn3 domain with H54Y, R57T
B10: E7 (designed binder)
10Fn3 domain: B4 10Fn3 domain with H54Y, L56V, R57H
B11: E13 (designed binder)
10Fn3 domain: B4 10Fn3 domain with H54G, D55Q, L56V, R57Y
B12: E17 (designed binder)
10Fn3 domain: B1 10Fn3 domain with Y54G, D55M, L56V, V57H
B13: E23 (designed binder)
10Fn3 domain: MGVSDVPRDLEVVAATPTSLLISWQVPRPMYQYYRITYGETGGNSPVQEFTVPYDVITATISGLKPGVDYTITVYAVTDMMHVEYAEYPISINYRTEIDKPSQ
B14: E26 (designed binder)
10Fn3 domain: B13 10Fn3 domain with Q25W, V26I, P27G, R28I, M30V, V56G, I57K
B15: E27 (designed binder)
10Fn3 domain: MGVSDVPRDLEVVAATPTSLLISWSKGSKSYQYYRITYGETGGNSPVQEFTVPYHVYTATISGLKPGVDYTITVYAVTDYYNPATYEYIYLTTPISINYRTEIDKPSQ
B16: E25 (designed binder)
10Fn3 domain: MGVSDVPRDLEVVAATPTSLLISWGYQSGGYTYYRITYGETGGNSPVQEFTVPHDLRTATISGLKPGVDYTITVYAVTDYAYKEYQEHPISINYRTEIDKPSQ
B17: E22 (designed binder)
10Fn3 domain: B4 10Fn3 domain with Q25S, V26T, P27G, P29T, M30T, R57D
B18: E24 (designed binder)
10Fn3 domain: B4 10Fn3 domain with H54G, D55Q, L56V, R57P
B19: E4 (designed binder)
10Fn3 domain: MGVSDVPRDLEVVAATPTSLLISWHERDGSRQYYRITYGETGGNSPVQEFTVPGGVRTATISGLKPGVDYTITVYAVTDYFNPTTHEYIYQTTPISINYRTEIDKPSQ
B20: E85 (designed binder)
10Fn3 domain: MGVSDVPRDLEVVAATPTSLLISWTQGSTHYQYYRITYGETGGNSPVQEFTVPGMVYTATISGLKPGVDYTITVYAVTDYFDRSTHEYKYRTTPISINYRTEIDKPSQ
B21: E84 (designed binder)
10Fn3 domain: MGVSDVPRDLEVVAATPTSLLISWTLHRKNYQYYRITYGETGGNSPVQEFTVPGGVVTATISGLKPGVDYTITVYAVTDYYNPATHEYDYRTTPISINYRTEIDKPSQ
B22: E83 (designed binder)
10Fn3 domain: MGVSDVPRDLEVVAATPTSLLISWMFVGMSYQYYRITYGETGGNSPVQEFTVPYGVHTATISGLKPGVDYTITVYAVTDYFNPATHEYIYHVTPISINYRTEIDKPSQ
B23: E82 (designed binder)
10Fn3 domain: MGVSDVPRDLEVVAATPTSLLISWRVLVDMYQYYRITYGETGGNSPVQEFTVPGGVLTATISGLKPGVDYTITVYAVTDYKPHVDGPHTYYESPISINYRTEIDKPSQ
B24: E100 (designed binder)
10Fn3 domain: B1 10Fn3 domain with Q25T, V26P, P27A, R28N, P29K, M30S, Y54H, S93Y
B25: E106 (designed binder)
10Fn3 domain: B1 10Fn3 domain with Q25D, V26A, R28A, P29V, M30T, L56V, V57Y, H80Y, S93Y
B26: E101 (designed binder)
10Fn3 domain: B1 10Fn3 domain with Q25D, V26A, R28A, P29V, M30T, Y54H, H80Y
B27: E104 (designed binder)
10Fn3 domain: B1 10Fn3 domain with Q25D, V26A, P27G, R28A, P29V, M30T, Y54H, S93Y
B28: E109 (designed binder)
10Fn3 domain: B1 10Fn3 domain with Q25D, V26A, R28T, P29S, M30R, Y54H, H80Y
B29: E102 (designed binder)
10Fn3 domain: B1 10Fn3 domain with Q25T, V26P, P27A, R28N, P29K, M30S, Y54H
B30: E111 (designed binder)
10Fn3 domain: B13 10Fn3 domain with Q25D, V26A, R28T, P29S, M30R, Y54H, V56L, I57V, D79N, A86S
B31: E107 (designed binder)
10Fn3 domain: MGVSDVPRDLEVVAATPTSLLISWDSGRGSYQYYRITYGETGGNSPVQEFTVPYDVYTATISGLKPGVDYTITVYAVTDMMHVEYTEHPISINYRTEIDKPSQH
B32: E108 (designed binder)
10Fn3 domain: B23 10Fn3 domain with R25D, V26A, L27P, V28A, D29V, M30T, L57R, V84A, Y91H
B33: E105 (designed binder)
10Fn3 domain: B1 10Fn3 domain with Q25D, V26A, R28T, P29S, M30R, Y54G, D55G, V57S, H80Y
B34: E110 (designed binder)
10Fn3 domain: B23 10Fn3 domain with R25D, V26A, L27G, V28A, D29V, M30T, L57R, V84A, Y91H
B35: E112 (designed binder)
10Fn3 domain: B23 10Fn3 domain with R25D, V26A, L27G, V28A, D29V, M30T, L57R, V84A, Y91H, S93Y
B36: E99 (designed binder)
10Fn3 domain: B23 10Fn3 domain with R25D, V26A, L27P, V28T, D29S, M30R, L57R, V84A, Y91H, S93Y
B37: E103 (designed binder)
10Fn3 domain: MGVSDVPRDLEVVAATPTSLLISWTPANKSYQYYRITYGETGGNSPVQEFTVPGGVRTATISGLKPGVDYTITVYAVTNMMHVEYSEYPISINYRTEIDKPSQ

molecular target: T1, EGFR on the surface of human tumour cells (A431, H292) (human, UniProt P00533 25-1210); assay: cell-based or functional assay

| % inhibition of EGFR phosphorylation at 100 nM binder, cell-based assay | Binder |
| --- | --- |
| 97.7% | B1 |
| 83.7% | B2 |
| 84.7% | B3 |
| 88.8% | B4 |
| 80% | B5 |
| 76.5% | B6 |
| 77.3% | B7 |
| 80.4% | B8 |
| 92.4% | B9 |
| 89.4% | B10 |
| 86.7% | B11 |
| 75.5% | B12 |

molecular target: T1, EGFR on the surface of human tumour …; assay: cell-based or functional assay; remark: another data set of the same source

| % inhibition of EGFR phosphorylation at 100 nM binder, cell-based assay | Binder |
| --- | --- |
| 81.1% | B13 |
| 75.4% | B14 |
| 94.6% | B15 |
| 77.1% | B16 |
| 83.7% | B17 |
| 90.3% | B18 |

molecular target: T1, EGFR on the surface of human tumour …; assay: cell-based or functional assay; remark: another data set of the same source

| % inhibition of EGFR phosphorylation at 100 nM binder, cell-based assay | Binder |
| --- | --- |
| 94.3% | B19 |
| 89.3% | B20 |
| 86.5% | B21 |
| 90.7% | B22 |
| 77.2% | B23 |

molecular target: T1, EGFR on the surface of human tumour …; assay: cell-based or functional assay; remark: another data set of the same source

| % inhibition of EGFR phosphorylation at 100 nM binder, cell-based assay | Binder |
| --- | --- |
| 83.3% | B24 |
| 84% | B25 |
| 90.9% | B26 |
| 89.3% | B27 |
| 90.9% | B28 |
| 80% | B29 |
| 85.5% | B30 |
| 75.8% | B31 |
| 80% | B32 |
| 87% | B33 |
| 81.3% | B34 |
| 86.2% | B35 |
| 84.7% | B36 |
| 76.3% | B37 |
